Test results reported in PMC3787022, “Small Angle X-Ray Scattering Studies of Mitochondrial Glutaminase C Reveal Extended Flexible Regions, and Link Oligomeric State with Enzyme Activity” (PLoS ONE, 2013).

How the values were obtained:
D3Z7P3 = experiment: SAXS; phosphate (Pi) titration 0-100 mM, microfluidic mixing chip, 36 sec mixing time; GACwt constant at 30.7 uM, GACΔC constant at 33.8 uM; 20 mM Tris-HCl, 500 mM NaCl, 0.5 mM TCEP, 1 mM sodium azide; analysed with OLIGOMER; settings: other: SAXS
[1] = target: the molecule itself; experiment: SEC-MALS; protein concentration screen 1.4-9.7 uM, no K2HPO4; WTC-030S5 column, 20 mM Tris-HCl pH 8.5, 500 mM NaCl, 23°C
[2] = target: the molecule itself; experiment: SEC-MALS; phosphate screen, K2HPO4 0, 25, 50 and 100 mM; protein 5 uM in the peak (injected 70 uM); WTC-030S5 column, 20 mM Tris-HCl pH 8.5, 500 mM NaCl, 23°C

B1: Glutaminase C wildtype construct (mouse GAC, residues 73-603) (enzyme, UniProt D3Z7P3-2 73-603, looked up)
chain: SSSPSEILQELGKGGTPPQQQQQQQQQPGASPPAAPGPKDSPGETDAFGNSEGKEMVAAGDNKIKQGLLPSLEDLLFYTIAEGQEKIPVHKFITALKSTGLRTSDPRLKECMDMLRLTLQTTSDGVMLDKDLFKKCVQSNIVLLTQAFRRKFVIPDFMSFTSHIDELYESAKKQSGGKVADYIPQLAKFSPDLWGVSVCTVDGQRHSIGDTKVPFCLQSCVKPLKYAIAVNDLGTEYVHRYVGKEPSGLRFNKLFLNEDDKPHNPMVNAGAIVVTSLIKQGVNNAEKFDYVMQFLNKMAGNEYVGFSNATFQSERESGDRNFAIGYYLKEKKCFPEGTDMVGILDFYFQLCSIEVTCESASVMAATLANGGFCPITGERVLSPEAVRNTLSLMHSCGMYDFSGQFAFHVGLPAKSGVAGGILLVVPNVMGMMCWSPPLDKMGNSVKGIHFCHDLVSLCNFHNYDNLRHFAKKLDPRREGGDQRHSFGPLDYESLQQELALKDTVWKKVSPESSDDTSTTVVYRMESLGERS
notes: GAC isoform of 603 residues; also called GACwt; GAC wildtype; source: expressed from a pET28a vector, purified (Ni-column, anion-exchange, gel filtration); not shown: histidine tag, N-terminal, cleaved
volume fraction of octamers at 80 mM Pi (D3Z7P3): a maximum of 38% at 80 mM Pi | stoichiometry N [1]: 4 | stoichiometry N [2]: ~4
